Legend:
[1] = target: B.040 gp140C; assay: ELISA, OD405 at 10 ug/ml
[2] = target: AE.con gp140CF; assay: ELISA, OD405 at 10 ug/ml
[3] = target: T1, gp70 B.CaseA2 V1/V2 (HIV-1 V1V2 on murine leukemia virus gp70); assay: ELISA, OD405 at 10 ug/ml
T1 construct: also called B.gp70CaseA2 V1/V2; gp70 B.CaseAV1V2
T1 chain: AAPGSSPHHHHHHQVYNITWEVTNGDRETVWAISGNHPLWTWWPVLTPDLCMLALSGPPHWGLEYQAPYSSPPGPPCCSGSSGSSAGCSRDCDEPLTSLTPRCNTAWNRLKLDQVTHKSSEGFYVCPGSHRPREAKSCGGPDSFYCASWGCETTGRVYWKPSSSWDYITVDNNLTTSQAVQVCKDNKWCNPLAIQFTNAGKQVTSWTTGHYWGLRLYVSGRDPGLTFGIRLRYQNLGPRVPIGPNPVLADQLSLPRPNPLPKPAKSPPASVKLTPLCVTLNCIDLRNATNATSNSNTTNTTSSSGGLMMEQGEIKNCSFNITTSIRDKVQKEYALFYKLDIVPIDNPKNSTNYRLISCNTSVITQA

[4] = target: T2, B.HXB/BAL gp140CFI (HIV-1, UniProt P04578 33-680); assay: ELISA, OD405 at 10 ug/ml
T2 construct: also called B.HxB/Ba gp140 CFI

[5] = target: T3, A.9004SS V1/V2 tags; assay: ELISA, OD405 at 10 ug/ml
T3 V1V2 tags construct: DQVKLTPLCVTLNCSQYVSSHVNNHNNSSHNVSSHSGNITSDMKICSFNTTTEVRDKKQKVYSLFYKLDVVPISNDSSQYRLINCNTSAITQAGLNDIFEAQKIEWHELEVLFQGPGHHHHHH

[6] = target: T4, gp70 C.1086 V1/V2 (HIV-1 V1V2 on murine leukemia virus gp70); assay: ELISA, OD405 at 10 ug/ml
T4 construct: also called C.gp70 1086C V1V2; C.1086gp70V1V2
T4 chain: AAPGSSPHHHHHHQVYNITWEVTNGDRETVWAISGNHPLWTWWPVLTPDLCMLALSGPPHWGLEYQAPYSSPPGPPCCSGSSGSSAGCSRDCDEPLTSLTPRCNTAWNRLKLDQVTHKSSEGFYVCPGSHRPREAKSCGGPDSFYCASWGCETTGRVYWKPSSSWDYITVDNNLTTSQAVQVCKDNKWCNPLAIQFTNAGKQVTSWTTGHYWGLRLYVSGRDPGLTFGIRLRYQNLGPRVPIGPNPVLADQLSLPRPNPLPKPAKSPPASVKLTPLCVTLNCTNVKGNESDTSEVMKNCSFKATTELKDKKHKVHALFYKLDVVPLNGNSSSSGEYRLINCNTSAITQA

[7] = target: T5, C.1086 gp140; assay: ELISA, OD405 at 10 ug/ml
T5 construct: also called C.1086gp140C

[8] = target: T6, SIV CPZ US-1 gp140CF (SIVcpz); assay: ELISA, OD405 at 10 ug/ml
T6 construct: also called US-1 SIVCPZ gp140CF
T6 chain: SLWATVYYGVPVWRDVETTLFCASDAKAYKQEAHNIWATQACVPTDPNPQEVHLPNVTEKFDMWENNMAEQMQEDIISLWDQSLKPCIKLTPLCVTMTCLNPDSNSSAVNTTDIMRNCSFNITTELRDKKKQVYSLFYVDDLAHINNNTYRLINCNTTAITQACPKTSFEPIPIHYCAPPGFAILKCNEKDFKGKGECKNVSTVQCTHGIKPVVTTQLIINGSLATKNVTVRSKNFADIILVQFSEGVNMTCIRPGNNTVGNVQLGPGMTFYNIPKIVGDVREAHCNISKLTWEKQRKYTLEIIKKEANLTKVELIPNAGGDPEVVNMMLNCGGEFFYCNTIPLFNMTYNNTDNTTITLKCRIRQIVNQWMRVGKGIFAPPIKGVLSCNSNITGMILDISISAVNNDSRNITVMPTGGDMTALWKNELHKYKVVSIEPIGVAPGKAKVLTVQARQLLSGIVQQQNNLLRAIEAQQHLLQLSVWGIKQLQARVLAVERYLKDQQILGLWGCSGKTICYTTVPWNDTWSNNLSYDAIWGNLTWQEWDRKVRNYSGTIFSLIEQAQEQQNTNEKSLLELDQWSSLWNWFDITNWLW

[9] = target: B.con gp140CF; assay: ELISA, OD405 at 10 ug/ml
[10] = target: Con 6 gp120; assay: ELISA, OD405 at 10 ug/ml
[11] = target: T7, B.62357 gp140C; assay: ELISA, OD405 at 10 ug/ml
T7 construct: also called B.62357 140C

[12] = target: G.con gp140CF; assay: ELISA, OD405 at 10 ug/ml
[13] = target: B.9021 gp140C (HIV-1); assay: ELISA, OD405 at 10 ug/ml
[14] = target: C.CAP206 gp140CF.12 (HIV-1); assay: ELISA, OD405 at 10 ug/ml
[15] = target: T8, AE.97CNG2XF gp140CF (HIV-1); assay: ELISA, OD405 at 10 ug/ml
T8 construct: also called E.97CNGX2F gp140CF

[16] = target: T9, B.63521_V1V2 Tags; assay: ELISA, OD405
T9 Env construct: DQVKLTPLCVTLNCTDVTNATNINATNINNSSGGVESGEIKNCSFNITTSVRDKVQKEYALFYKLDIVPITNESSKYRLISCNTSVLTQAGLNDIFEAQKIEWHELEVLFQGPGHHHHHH

[17] = target: T10, G.con gp140CF; assay: ELISA, OD405
T10 construct: also called G.con.env03 gp140CF

[18] = target: B.63521 gp140C; assay: ELISA, OD405
[19] = target: T11, C.1086 gp140; assay: ELISA, OD405
T11 construct: also called C.1086gp140C

[20] = target: T2, B.HXB/BAL gp140CFI; assay: ELISA, OD405
[21] = target: T12, AE.con gp140CF; assay: ELISA, OD405
T12 construct: also called AE.con.env03 gp140CF

[22] = target: B.040 gp140C; assay: ELISA, OD405
[23] = target: Con 6 gp120; assay: ELISA, OD405
[24] = target: B. 681-7 gp140C; assay: ELISA, OD405
[25] = target: T13, B.62357 140C; assay: ELISA, OD405
T13 construct: also called B.62357 gp140C

[26] = target: T14, D.9009SA V1V2 Tags; assay: ELISA, OD405
T14 Env construct: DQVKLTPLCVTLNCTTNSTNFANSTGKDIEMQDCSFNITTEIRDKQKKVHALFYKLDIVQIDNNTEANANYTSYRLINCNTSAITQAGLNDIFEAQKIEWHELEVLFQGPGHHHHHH

[27] = target: T4, gp70 C.1086 V1/V2; assay: ELISA, OD405
[28] = target: T15, A.9004SS V1V2 Tags; assay: ELISA, OD405
T15 Env construct: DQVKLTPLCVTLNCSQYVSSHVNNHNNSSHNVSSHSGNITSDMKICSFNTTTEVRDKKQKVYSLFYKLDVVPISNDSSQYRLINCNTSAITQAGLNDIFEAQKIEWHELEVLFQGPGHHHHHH

[29] = target: T16, B.Case A2 V1/V2 Tags; assay: ELISA, OD405
T16 Env construct: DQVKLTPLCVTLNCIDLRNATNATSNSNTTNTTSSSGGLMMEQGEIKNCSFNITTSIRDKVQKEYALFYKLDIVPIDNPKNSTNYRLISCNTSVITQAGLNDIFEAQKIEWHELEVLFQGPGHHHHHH

[30] = target: T6, SIV CPZ US-1 gp140CF; assay: ELISA, OD405
[31] = target: B. 684-6 gp140C; assay: ELISA, OD405
[32] = target: C.CAP206 gp140CF.12 (HIV-1); assay: ELISA, OD405
[33] = target: T17, B.con gp140CF; assay: ELISA, OD405
T17 construct: also called B.con.env03 gp140CF

[34] = target: T8, AE.97CNG2XF gp140CF; assay: ELISA, OD405

Measured: binding result

B1: CH01_UA1 (antibody, V domains shown)
VH: EVQLVESGGGVVRPGGSLRLSCAASGFTFDDYGMSWVRQAPGKGLEWVSGINWNGGSTGYADSVKGRFTISRDNAKNSLYLQMNSLRAEDTALYYCARGTDYTIDDQGIRYQGSGTFWYFDLWGRGTLVTVSS
VL: not shown
no binding (tested: 10 ug/ml): [1] | [2] | [3] | [4] | [5] | [6] | [7] | [8] | [9] | [10] | [11] | [12] | [13] | [14] | [15]

B2: CH01_RUA2 (antibody, V domains shown)
VH: EVQLVESGGGVVRPGGSLRLSCAASGFTFDDYGMSWVRQAPGKGLEWVSGINWNGGSTGYADSVKGRFTISRDNAKNSLYLQMNSLRAEDTALYYCARGTDYTIDDQGILYQGSGTFWYFDLWGRGTLVTVSS
VL: not shown
notes: also called CH01 UA 2; CH01_UA 2
not listed: [1] | [2] | [3] | [4] | [5] | [6] | [7] | [8] | [9] | [10] | [11] | [12] | [13] | [14] | [15]
no binding (tested: 10 ug/ml): all other assays above
